{
  "source": "patent US20130158238A1",
  "about": "(THERACLONE SCIENCES, published 2013)",
  "binders": {"B1": {"name": "8i10 (antibody, V domains shown)", "VH": "QVQLQESGPGLVKPSETLSLTCTVSGSSISNYYWSWIRQSPGKGLEWIGFIYYGGNTKYNPSLKSRVTISQDTSKSQVSLTMSSVTAAESAVYFCARASCSGGYCILDYWGQGTLVTVS", "VL": "DIQMTQSPSSLSASVGDRVTITCRASQNIYKYLNWYQQRPGKAPKGLISAASGLQSGVPSRFSGSGSGTDFTLTITSLQPEDFATYYCQQSYSPPLTFGGGTRVEIK"}, "B2": {"name": "23K12 (antibody, V domains shown)", "VH": "EVQLVESGGGLVQPGGSLRISCAASGFTVSSNYMSWVRQAPGKGLEWVSVIYSGGSTYYADSVKGRFSFSRDNSKNTVFLQMNSLRAEDTAVYYCARCLSRMRGYGLDVWGQGTTVTVS", "VL": "DIQMTQSPSSLSASVGDRVTITCRTSQSISSYLNWYQQKPGKAPKLLIYAASSLQSGVPSRFSGSGSGTDFTLTISGLQPEDFATYYCQQSYSMPAFGQGTKLEIK"}},
  "assay_in_all_cases": "ELISA, peptide 2 µg/mL, mAb 5 µg/mL",
  "key": {"[1]": {"target": "NM10"}, "[2]": {"target": "NM11"}, "[3]": {"target": "NM16"}, "[4]": {"target": "NM9"}},
  "data": [
    {"binder": "B1", "values": [
      {"measurement": "binding activity (ELISA A450)", "setting": "[1]", "result": 0.1},
      {"measurement": "binding activity (ELISA A450)", "setting": "[2]", "result": 0.13},
      {"measurement": "binding activity (ELISA A450)", "setting": "[3]", "result": 0.29},
      {"measurement": "binding activity (ELISA A450)", "setting": "[4]", "result": 0.12}
    ]},
    {"binder": "B2", "values": [
      {"measurement": "binding activity (ELISA A450)", "setting": "[1]", "result": 0.24},
      {"measurement": "binding activity (ELISA A450)", "setting": "[2]", "result": 0.3},
      {"measurement": "binding activity (ELISA A450)", "setting": "[3]", "result": 0.62},
      {"measurement": "binding activity (ELISA A450)", "setting": "[4]", "result": 0.3}
    ]}
  ]
}
